Source: publication PMC12457637, “An aptamer-drug conjugate for promising cancer therapy with comprehensive evaluation from rodents to non-human primates” (Signal Transduction and Targeted Therapy, 2025)
Read-outs that look alike come from different tables or passages of the source. Non-standard residues stand in square brackets, D forms with d. Residues, ends and D or L forms follow the SMILES beside them. *: point of attachment. Dolaproine = CO[C@@H]([C@@H]1CCCN1)[C@@H](C)C(=O)O; Dil = CC[C@H](C)[C@H](NC)[C@@H](CC(=O)O)OC; X1 = C[C@@H](N*)[C@@H](O)c1ccccc1; NMeV = CN[C@H](C(=O)O)C(C)C

What was measured:
[1] = tested on: TNBC PDX; test: Antitumor efficacy, TNBC PDX; assay type: in vivo, mice; conditions: 10 mg/kg i.p.
Experimental: (§1) In vivo therapeutic evaluations were performed to evaluate the antitumor effects of the PTK7-targeted ApDC Sgc8c-M with comparisons made between the chemotherapeutic drug paclitaxel and the ApDC’s toxic payload MMAE in most cases. […] All tumor models were established on female BALB/c nude mice. Briefly, a 50 μL suspension of tumor cells (SUM159: 5 × 10^6, MDA-MB-468: 1 × 10^7, MIA PaCa-2: 5 × 10^6, OVCAR3: 5 × 10^6, HT-29: 5 × 10^6, NCI-H1975: 5 × 10^6, A549: 5 × 10^6) mixed with an equal volume of Matrigel (BD) was injected s.c. into the right hind flank region of mice. For the TNBC PDX and pancreatic cancer PDX F4 and F5 models, 3–5 mm^3 of tumor fragments were implanted into the right hind flank region of mice. When tumor sizes reached approximately 100 mm^3–300 mm^3, the mice were randomly divided into control and treatment groups. Sgc8c-M (i.v.), paclitaxel (i.p.), MMAE (i.v.), or ADC h6M24-VcMMAE (i.v.) were administered to tumor-bearing mice respectively, and tumor volume and body weight were measured every 2 to 4 days following the initiation of treatment. […] Tumor volume was calculated according to the following equation: Tumor volume = (tumor length × tumor width^2)/2. TGI (%) was calculated as follows: TGI (%) = [1 – (mean of tumor volume in the treatment group)/(mean of tumor volume in the saline group)] × 100.

[2] = tested on: SUM159 xenograft; test: Antitumor efficacy, SUM159 xenograft; assay type: in vivo, mice; conditions: 10 mg/kg i.p., Fig. 2c
Experimental: as §1

[3] = tested on: MDA-MB-468 xenograft; test: Antitumor efficacy, MDA-MB-468 xenograft; assay type: in vivo, mice; conditions: free MMAE at equivalent dose (0.359 mg/kg i.v.)
Experimental: as §1

[4] = tested on: MIA PaCa-2 cells; test: 72-h cytotoxicity (MTS), MIA PaCa-2; assay type: cell-based
Experimental: Cells were seeded in wells of a 96-well plate (6000 cells/well) and incubated overnight to allow for cell adherence. On the second day, 100 μL complete medium containing VcMMAE and Sgc8c-M (400, 200, 100, 50, 25, 12.5, and 6.25 nM), as well as MMAE (5, 2.5, 1.25, 0.625, 0.3125, 0.15625, and 0.078125 nM), were added to wells of a 96-well plate for an additional 72-h incubation at 37 °C. At the end of incubation, 100 μL of CellTiter 96® Aqueous One Solution Cell Proliferation Assay (MTS, Promega) solution (prepared by mixing 2 mL MTS with 9 mL of complete medium) were added to each well. The plates were then incubated for an additional 1–2 h to allow for the formation of formazan crystals. The absorbance of each well was measured at 490 nm using a Multi-Mode Microplate Reader (TECAN, SPARK) to assess cell viability. Cell viability was calculated as [OD490 (treatment) - OD490 (blank)]/[OD490 (nontreatment) - OD490 (blank)] × 100%.

[5] = set-up: method as in PMID 31877330; conditions: cited from earlier work
[6] = target: T1, PTK7 (rat, UniProt A0A8I6AKN3 23-696); test: SPR; 5 mM Mg2+; Kd only in figure; SPR (Biacore 8K, CM5): DPBS + 5 mM MgCl2, 10 uL/min, 180 s association and dissociation; temperature and pH of running buffer not stated; conditions: protein: commercial; tags: His
[7] = target: T2, PTK7 (mouse, UniProt Q8BKG3 23-696); test: as above; conditions: protein: commercial; tags: His
T2 sequence: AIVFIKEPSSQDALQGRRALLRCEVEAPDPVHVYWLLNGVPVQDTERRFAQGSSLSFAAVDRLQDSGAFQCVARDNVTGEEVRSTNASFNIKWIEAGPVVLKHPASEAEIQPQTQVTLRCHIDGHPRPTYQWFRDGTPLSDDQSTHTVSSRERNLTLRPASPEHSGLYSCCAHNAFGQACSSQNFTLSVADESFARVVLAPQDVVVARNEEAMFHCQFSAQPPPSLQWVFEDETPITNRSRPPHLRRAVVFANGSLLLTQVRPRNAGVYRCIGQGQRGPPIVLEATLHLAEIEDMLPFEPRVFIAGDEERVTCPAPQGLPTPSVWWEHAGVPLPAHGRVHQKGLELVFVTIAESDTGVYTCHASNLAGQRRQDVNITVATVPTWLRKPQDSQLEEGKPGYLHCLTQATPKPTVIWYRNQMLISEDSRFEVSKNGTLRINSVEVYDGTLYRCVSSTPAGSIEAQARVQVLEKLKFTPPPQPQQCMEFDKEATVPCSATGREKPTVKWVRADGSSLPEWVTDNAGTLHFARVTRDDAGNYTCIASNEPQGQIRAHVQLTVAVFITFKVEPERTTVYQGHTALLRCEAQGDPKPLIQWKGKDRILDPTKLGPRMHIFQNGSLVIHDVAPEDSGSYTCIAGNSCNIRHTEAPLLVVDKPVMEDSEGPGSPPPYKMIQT

[8] = target: T3, PTK7 (human, UniProt Q13308 31-704); test: as above; conditions: protein: commercial; tags: His
T3 sequence: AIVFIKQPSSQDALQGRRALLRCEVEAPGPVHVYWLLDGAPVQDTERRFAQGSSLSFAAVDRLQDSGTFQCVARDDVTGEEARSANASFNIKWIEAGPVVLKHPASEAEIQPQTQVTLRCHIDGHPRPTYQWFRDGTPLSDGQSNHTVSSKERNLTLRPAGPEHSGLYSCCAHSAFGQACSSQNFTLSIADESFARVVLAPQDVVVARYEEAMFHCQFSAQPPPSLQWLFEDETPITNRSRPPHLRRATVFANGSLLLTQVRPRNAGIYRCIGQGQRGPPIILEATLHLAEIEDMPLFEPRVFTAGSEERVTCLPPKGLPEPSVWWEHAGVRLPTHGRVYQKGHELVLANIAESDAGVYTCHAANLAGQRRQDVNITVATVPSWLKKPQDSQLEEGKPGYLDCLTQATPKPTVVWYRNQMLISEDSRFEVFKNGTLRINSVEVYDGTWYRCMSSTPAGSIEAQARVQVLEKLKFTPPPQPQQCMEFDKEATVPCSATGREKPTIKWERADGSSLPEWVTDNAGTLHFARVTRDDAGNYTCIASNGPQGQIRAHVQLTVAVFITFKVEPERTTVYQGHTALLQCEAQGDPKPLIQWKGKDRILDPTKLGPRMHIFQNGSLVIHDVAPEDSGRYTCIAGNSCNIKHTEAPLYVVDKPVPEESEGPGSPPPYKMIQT

[9] = target: T1, PTK7; test: SPR; 5 mM Mg2+; 400 nM; Kd only in figure; SPR (Biacore 8K, CM5): DPBS + 5 mM MgCl2, 10 uL/min, 180 s association and dissociation; temperature and pH of running buffer not stated; conditions: protein: commercial; tags: His
[10] = target: T2, PTK7; test: as above; conditions: protein: commercial; tags: His
[11] = target: T3, PTK7; test: as above; conditions: protein: commercial; tags: His
[12] = target: T3, PTK7; test: SPR; 5 mM Mg2+; 400 nM; SPR (Biacore 8K, CM5): DPBS + 5 mM MgCl2, 10 uL/min, 180 s association and dissociation; temperature and pH of running buffer not stated; conditions: protein: commercial; tags: His
[13] = target: T4, human PTK7 (Homo sapiens, UniProt Q13308); test: SPR binding to recombinant human PTK7
T4 construct: His; purchased Sino Biological 19399-H08H
T4 sequence (Q13308 31-704 limits assumed): T3 sequence
Source text: For SPR analysis, human (#19399-H08H, Sino Biological), mouse (HY-P78761, MCE), rat (HY-P78619, MCE), and cynomolgus monkey (#90979-C08H, Sino Biological) PTK7 proteins with His tags were immobilized on a carboxymethylated dextran CM5 chip on SPR (Cytiva Biacore 8 K). Sodium acetate buffer (NaAC) at pH 5.0/5.5 was used for human and cynomolgus monkey PTK7 proteins, while a pH of 4.5 was applied for mouse and rat PTK7 proteins. His protein was simultaneously immobilized on the CM5 chip as a control using pH 4.5 NaAC. The final concentration of all above proteins was 10 μg/mL. Unreacted carboxyl groups were subsequently deactivated using ethanolamine-HCl. Sgc8c were diluted to 25, 50, 100, 200, and 400 nM in running buffer (DPBS supplemented with 5 mM MgCl2), and Sgc8c-M and Ctrl-M were diluted to 400 nM. Sgc8c, Sgc8c-M, and Ctrl-M were sequentially injected over the immobilized surface from low to high concentrations for a 180-s association phase followed by a 180-s dissociation phase at a flow rate of 10 µL/min. The capture surface was regenerated after each cycle with a 30-s contact time of 1.5 M NaCl at a flow rate of 30 µL/min. The equilibrium dissociation constant (Kd) was subsequently analyzed by Biacore Insight Evaluation software.

In the case of `CC(=O)O[C@H]1C(=O)[C@@]2(C)[C@H]([C@H](OC(=O)c3ccccc3)[C@]3(O)C[C@H](OC(=O)[C@H](O)[C@@H](NC(=O)c4ccccc4)c4ccccc4)C(C)=C1C3(C)C)[C@]1(OC(C)=O)CO[C@@H]1C[C@@H]2O` [paclitaxel], the “tumor growth compared to saline controls” value [1] is reported as “failed to significantly inhibit tumor growth” and the “tumor growth relative to saline controls” value [2] is reported as “partially reduced tumor growth”.

In the case of `CC[C@H](C)[C@@H]([C@@H](CC(=O)N1CCC[C@H]1[C@H](OC)[C@@H](C)C(=O)N[C@H](C)[C@@H](O)c1ccccc1)OC)N(C)C(=O)[C@@H](NC(=O)[C@@H](NC)C(C)C)C(C)C` [MMAE, monomethyl auristatin E] (H-[NMeV]V[Dil][Dolaproine]-X1), the TGI [3] is reported as 76%, the “IC50 lower than that of Sgc8c-M” value ([4]; MIA PaCa-2) is reported as “approximately 48 fold” and the IC50 ([4]; MIA PaCa-2, 72-h incubation) is reported as 0.389 nM. The mortality ([5]; single administration of 0.16 mg/kg) was 100%.

ATCTAACTGCTGCGCCGCCGGGAAAATACTGTACGGTTAGA (structured_DNA) [Sgc8c]: binds [6]; binds [7]; binds [8].

ATCTAACTGCTGCGCCGCCGGGAAAATACTGTACGGTTAGA (structured_DNA, 3'-C6-S-maleimide MC-VC-PAB-MMAE conjugate) [Sgc8c-M]: binds [9]; binds [10]; binds [11].

AGATTGGCATGTCATAAAAGGGCCGCCGCGTCGTCAATCTA (ssDNA, 3'-C6-S-maleimide MC-VC-PAB-MMAE conjugate) [Ctrl-M]: no binding [12].

B1: h6M24-VcMMAE: PTK7-targeted ADC (DAR4): antibody of h6M24-vc0101 conjugated with the same MMAE payload (conjugate, chains of the INN, looked up)
VH: QVQLVQSGPEVKKPGASVKVSCKASGYTFTDYAVHWVRQAPGKRLEWIGVISTYNDYTYNNQDFKGRVTMTRDTSASTAYMELSRLRSEDTAVYYCARGNSYFYALDYWGQGTSVTVSS
VL: EIVLTQSPATLSLSPGERATLSCRASESVDSYGKSFMHWYQQKPGQAPRLLIYRASNLESGIPARFSGSGSGTDFTLTISSLEPEDFAVYYCQQSNEDPWTFGGGTKLEIK
modifications: vcMMAE payload, DAR4
B1 gave a Kd [13] of 3.18 nM.

B2: Disitamab vedotin: clinically approved ADC, anti-HER2 antibody conjugated with MMAE (conjugate, chains of the INN, looked up)
VH: EVQLVQSGAEVKKPGATVKISCKVSGYTFTDYYIHWVQQAPGKGLEWMGRVNPDHGDSYYNQKFKDKATITADKSTDTAYMELSSLRSEDTAVYFCARNYLFDHWGQGTLVTVSS
VL: DIQMTQSPSSVSASVGDRVTITCKASQDVGTAVAWYQQKPGKAPKLLIYWASIRHTGVPSRFSGSGSGTDFTLTISSLQPEDFATYYCHQFATYTFGGGTKVEIK
modifications: MMAE payload
notes: clinically approved ADC, anti-HER2 antibody conjugated with MMAE
In the case of B2, the mortality ([5]; single injection of 18 mg/kg (approx. 0.35 mg/kg MMAE)) is given as 50%.
